The experiment has as its target T1, Mpl expressed as an mKO2 fusion protein (Mpl^mKO2) (human, UniProt P40238 26-635).
T1 sequence (looked up): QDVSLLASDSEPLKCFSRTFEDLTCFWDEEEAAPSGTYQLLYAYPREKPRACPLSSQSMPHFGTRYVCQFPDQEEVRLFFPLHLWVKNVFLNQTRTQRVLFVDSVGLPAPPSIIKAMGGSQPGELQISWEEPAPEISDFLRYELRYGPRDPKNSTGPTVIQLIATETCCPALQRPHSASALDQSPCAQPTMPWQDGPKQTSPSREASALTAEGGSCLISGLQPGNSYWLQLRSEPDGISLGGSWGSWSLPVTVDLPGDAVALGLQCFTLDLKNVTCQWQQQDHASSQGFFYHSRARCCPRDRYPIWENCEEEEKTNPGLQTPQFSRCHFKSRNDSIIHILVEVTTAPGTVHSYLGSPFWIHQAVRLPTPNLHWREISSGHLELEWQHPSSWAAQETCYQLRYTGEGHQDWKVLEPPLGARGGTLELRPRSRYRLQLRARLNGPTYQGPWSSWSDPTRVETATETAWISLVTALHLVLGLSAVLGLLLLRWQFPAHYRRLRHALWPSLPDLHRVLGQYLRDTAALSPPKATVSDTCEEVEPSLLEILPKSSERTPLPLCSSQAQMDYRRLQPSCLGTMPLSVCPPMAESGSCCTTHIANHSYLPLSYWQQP
The experiment can be described thus: co-IP.

B1: Jak2WT (endogenous wildtype Jak2 of K562 cells) (enzyme, human (endogenous in K562), UniProt O60674 1-1132, looked up)
chain: MGMACLTMTEMEGTSTSSIYQNGDISGNANSMKQIDPVLQVYLYHSLGKSEADYLTFPSGEYVAEEICIAASKACGITPVYHNMFALMSETERIWYPPNHVFHIDESTRHNVLYRIRFYFPRWYCSGSNRAYRHGISRGAEAPLLDDFVMSYLFAQWRHDFVHGWIKVPVTHETQEECLGMAVLDMMRIAKENDQTPLAIYNSISYKTFLPKCIRAKIQDYHILTRKRIRYRFRRFIQQFSQCKATARNLKLKYLINLETLQSAFYTEKFEVKEPGSGPSGEEIFATIIITGNGGIQWSRGKHKESETLTEQDLQLYCDFPNIIDVSIKQANQEGSNESRVVTIHKQDGKNLEIELSSLREALSFVSLIDGYYRLTADAHHYLCKEVAPPAVLENIQSNCHGPISMDFAISKLKKAGNQTGLYVLRCSPKDFNKYFLTFAVERENVIEYKHCLITKNENEEYNLSGTKKNFSSLKDLLNCYQMETVRSDNIIFQFTKCCPPKPKDKSNLLVFRTNGVSDVPTSPTLQRPTHMNQMVFHKIRNEDLIFNESLGQGTFTKIFKGVRREVGDYGQLHETEVLLKVLDKAHRNYSESFFEAASMMSKLSHKHLVLNYGVCVCGDENILVQEFVKFGSLDTYLKKNKNCINILWKLEVAKQLAWAMHFLEENTLIHGNVCAKNILLIREEDRKTGNPPFIKLSDPGISITVLPKDILQERIPWVPPECIENPKNLNLATDKWSFGTTLWEICSGGDKPLSALDSQRKLQFYEDRHQLPAPKWAELANLINNCMDYEPDFRPSFRAIIRDLNSLFTPDYELLTENDMLPNMRIGALGFSGAFEDRDPTQFEERHLKFLQQLGKGNFGSVEMCRYDPLQDNTGEVVAVKKLQHSTEEHLRDFEREIEILKSLQHDNIVKYKGVCYSAGRRNLKLIMEYLPYGSLRDYLQKHKERIDHIKLLQYTSQICKGMEYLGTKRYIHRDLATRNILVENENRVKIGDFGLTKVLPQDKEYYKVKEPGESPIFWYAPESLTESKFSVASDVWSFGVVLYELFTYIEKSKSPPAEFMRMIGNDKQGQMIVFHLIELLKNNGRLPRPDGCPDEIYMIMTECWNNNVNQRPSFRDLALRVDQIRDNMAG
With B1, the “fold more co-immunoprecipitated than Jak2V617F with endogenous Mpl in HEL cells” value was about 8 fold.
